Reference: publication PMC9283941, “Self-activating G protein α subunits engage seven-transmembrane regulator of G protein signaling (RGS) proteins and a Rho guanine nucleotide exchange factor effector in the amoeba Naegleria fowleri” (The Journal of Biological Chemistry, 2022)

Tests used:
Nf Gα5 [1] = target: T1, Nf Gα5 (Naegleria fowleri, UniProt A0A6A5BQC6); experiment: intrinsic tryptophan fluorescence (activation); type: binding; details: 0.5 μM protein, 1 μM nucleotide, 10 mM MgCl2, pH 7.5, 20 °C
T1 construct: gene FDP41_003899; N-terminal TEV-cleavable His6 tag; E. coli
T1 sequence (A0A6A5BQC6 57-394 limits assumed): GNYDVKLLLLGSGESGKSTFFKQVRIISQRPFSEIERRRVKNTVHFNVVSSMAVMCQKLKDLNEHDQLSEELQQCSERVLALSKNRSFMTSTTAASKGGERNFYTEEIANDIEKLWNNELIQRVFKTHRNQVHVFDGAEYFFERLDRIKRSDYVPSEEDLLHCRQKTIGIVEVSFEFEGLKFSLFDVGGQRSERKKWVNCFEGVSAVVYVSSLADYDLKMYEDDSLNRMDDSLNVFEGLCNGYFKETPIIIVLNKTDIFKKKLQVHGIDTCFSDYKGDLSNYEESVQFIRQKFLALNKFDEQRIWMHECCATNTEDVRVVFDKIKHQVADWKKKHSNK

Nf Gα7 = target: T2, Nf Gα7 (Naegleria fowleri, UniProt A0A6I8WFP8); experiment: intrinsic tryptophan fluorescence (activation); type: binding; details: 0.5 μM protein, 1 μM nucleotide, 10 mM MgCl2, pH 7.5, 20 °C
T2 construct: gene NF0037180; N-terminal TEV-cleavable His6 tag; E. coli
T2 sequence (A0A6I8WFP8 1-321): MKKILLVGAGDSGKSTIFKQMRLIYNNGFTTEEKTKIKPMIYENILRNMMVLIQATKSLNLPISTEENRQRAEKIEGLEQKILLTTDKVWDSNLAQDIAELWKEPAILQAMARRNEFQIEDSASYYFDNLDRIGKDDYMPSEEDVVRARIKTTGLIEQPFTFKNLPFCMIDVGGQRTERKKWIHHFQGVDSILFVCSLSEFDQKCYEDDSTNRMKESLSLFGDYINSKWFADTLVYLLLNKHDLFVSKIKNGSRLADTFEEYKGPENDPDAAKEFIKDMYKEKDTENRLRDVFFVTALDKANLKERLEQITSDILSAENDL

[2] = target: Naegleria fowleri G protein α subunit Nf Gα3 (Naegleria fowleri); experiment: SPR; Proteon XPR36; ~5000 RU of His6-tagged Gα subunits immobilised on a nickel-NTA chip by covalent capture coupling; RGS domains injected as analyte at 20 μl/min; 50 mM Hepes pH 7.4, 150 mM NaCl, 0.05% NP-40 alternative, 50 μM EDTA, 1 mM MgCl2; Gα in the AMF state (100 μM GDP, 20 mM NaF, 30 μM AlCl3); equilibrium binding analysis
[3] = target: Naegleria fowleri G protein α subunit Nf Gα2 (Naegleria fowleri); experiment: as above
Nf Gα5 [4] = target: T1, Nf Gα5; experiment: intrinsic tryptophan fluorescence (activation, return after hydrolysis); type: biochemical; details: 0.5 μM protein, 1 μM nucleotide, 10 mM MgCl2, pH 7.5, 20 °C

Row | Compound | Kd [2] | Kd [3] | intrinsic tryptophan fluorescence (activation) (Nf Gα5 [1]) | intrinsic tryptophan fluorescence (activation) (Nf Gα7) | intrinsic tryptophan fluorescence (activation, return after hydrolysis) (Nf Gα5 [4])
1 | Nc1nc2c(ncn2[C@@H]2O[C@H](COP(=O)(O)OP(=O)(O)NP(=O)(O)O)[C@@H](O)[C@H]2O)c(=O)[nH]1 [GppNHp] |  |  | achieved the active conformation in the presence of either GppNHp or GTP | achieved the active conformation in the presence of either GppNHp or GTP | 
2 | Nc1nc2c(ncn2[C@@H]2O[C@H](COP(=O)(O)OP(=O)(O)OP(=O)(O)O)[C@@H](O)[C@H]2O)c(=O)[nH]1 [GTP] |  |  |  | achieved the active conformation in the presence of either GppNHp or GTP | returned slowly to near-baseline levels after multiple rounds of hydrolysis and exhaustion of available GTP

The next lines start with results.

Row | Kd [2] | Kd [3] | Compound | intrinsic tryptophan fluorescence (activation) (Nf Gα5 [1]) | intrinsic tryptophan fluorescence (activation) (Nf Gα7) | intrinsic tryptophan fluorescence (activation, return after hydrolysis) (Nf Gα5 [4])
3 | 3300 nM | 2400 nM | RGS domain of Naegleria fowleri Nf RGS-RhoGEF (domain or fragment) |  |  | 
4 | 1800 nM |  | RGS domain of Naegleria fowleri seven-transmembrane RGS protein Nf 7TM RGS4 (domain or fragment) |  |  | 
5 | 550 nM | 630 nM | RGS domain of Naegleria fowleri seven-transmembrane RGS protein Nf 7TM RGS2 (domain or fragment) |  |  | 
